Test results: US20200024330A1

Assays:
Assay in all cases: cell-based or functional assay
[1] = biological target: HIV-1 MGRM-F1-016 Env (pseudovirus) (HIV-1)
[2] = biological target: aMLV envelope protein on pseudovirus
[3] = biological target: HIV-1 Env of isolate MGRM-G-019 (clade G pseudovirus) (HIV-1)
[4] = biological target: HIV-1 APV-6 envelope protein (Env) on pseudovirus (HIV-1)
[5] = biological target: HIV-1 MGRM-C-005 Env (HIV-1)
[6] = biological target: HIV-1 MGRM-C-024 Env (HIV-1)
[7] = biological target: HIV-1 92TH021 envelope protein (Env) on pseudovirus (HIV-1)
[8] = biological target: HIV-1 94UG114 envelope glycoprotein (Env) on pseudovirus (HIV-1)
[9] = biological target: HIV-1 Env of pseudovirus SC422661.8 (Acute), clade B (HIV-1)
[10] = biological target: HIV-1 Env of isolate MGRM-D-002 (clade D) (HIV-1)
[11] = biological target: HIV-1 CMU02 envelope protein (Env) on pseudovirus (HIV-1)
[12] = biological target: HIV-1 93UG077 envelope protein (Env) on pseudovirus (HIV-1)
[13] = biological target: HIV-1 Env of isolate MGRM-D-011 (clade D) (HIV-1)
[14] = biological target: HIV-1 92BR020 envelope protein (Env) on pseudovirus (HIV-1)
[15] = biological target: HIV-1 Env of isolate MGRM-G-011 (clade G pseudovirus) (HIV-1)
[16] = biological target: HIV-1 Env of isolate MGRM-G-019 (subtype G) (HIV-1)
[17] = biological target: HIV-1 Env of isolate MGRM-F1-014 (HIV-1)
[18] = biological target: HIV-1 TRO.11 Env (pseudovirus) (HIV-1)
[19] = biological target: HIV-1 MGRM-Chronic-B-002 Env (pseudovirus) (HIV-1)
[20] = biological target: HIV-1 TRJ04551.58 Env (pseudovirus) (HIV-1)
[21] = biological target: HIV-1 JR-CSF Env N156A (HIV-1 (isolate JR-CSF)) (UniProt P20871)
[22] = biological target: HIV-1 JR-CSF Env K168A (HIV-1 (isolate JR-CSF)) (UniProt P20871)
[23] = biological target: HIV-1 Env of isolate MGRM-C-028 (pseudovirus) (HIV-1 isolate MGRM-C-028, subtype C)
[24] = biological target: HIV-1 Env of isolate MG RM-AG-009 (HIV-1)
[25] = biological target: HIV-1 Env of isolate MGRM-C-013 (pseudovirus) (HIV-1 isolate MGRM-C-013, subtype C)
[26] = biological target: HIV-1 JR-CSF Env R166A (HIV-1 (isolate JR-CSF)) (UniProt P20871)
[27] = biological target: HIV-1 JR-CSF Env D113A (HIV-1 (isolate JR-CSF)) (UniProt P20871)
[28] = biological target: HIV-1 JR-CSF Env T162A (HIV-1 (isolate JR-CSF)) (UniProt P20871)
[29] = biological target: HIV-1 Env of isolate MGRM-C-025 (pseudovirus) (HIV-1 isolate MGRM-C-025, subtype C)
[30] = biological target: HIV-1 Env of isolate MGRM-C-019 (pseudovirus) (HIV-1 isolate MGRM-C-019, subtype C)
[31] = biological target: HIV-1 MGRM-Chronic-B-012 Env (pseudovirus) (HIV-1)
[32] = biological target: HIV-1 Env of isolate 92UG031 (HIV-1)
[33] = biological target: HIV-1 Env of isolate JRCSF (HIV-1) (UniProt P20871)
[34] = biological target: HIV-1 Env of isolate MGRM-D-004 (HIV-1)
[35] = biological target: HIV-1 Env of isolate MGRM-D-018 (HIV-1)
[36] = biological target: HIV-1 Env of isolate MGRM-Chronic-B-002 (HIV-1)
[37] = biological target: HIV-1 Env of isolate MGRM-Chronic-B-008 (HIV-1)
[38] = biological target: HIV-1 Env of isolate NL43 (HIV-1)
[39] = biological target: HIV-1 Env of isolate TRJ04551.58 (HIV-1)

| Substance | IC50 (µg/ml), pseudovirus neutralization [1] [µg/mL] | neutralization IC50 [2] [µg/mL] | IC50 (µg/ml), pseudovirus neutralization [3] [µg/mL] | neutralization IC50 [4] [µg/mL] | IC50 [5] [µg/mL] | IC50 [6] [µg/mL] | neutralization IC50 [7] [µg/mL] | IC50 (µg/ml), pseudovirus neutralization [8] [µg/mL] | IC50 (µg/ml), pseudovirus neutralization [9] [µg/mL] | IC50 (µg/ml), pseudovirus neutralization [10] [µg/mL] | neutralization IC50 [11] [µg/mL] | neutralization IC50 [12] [µg/mL] | IC50 (µg/ml), pseudovirus neutralization [13] [µg/mL] | neutralization IC50 [14] [µg/mL] | IC50 (µg/ml), pseudovirus neutralization [15] [µg/mL] | neutralization IC50 [16] [µg/mL] | other results |
| --- | --- | --- | --- | --- | --- | --- | --- | --- | --- | --- | --- | --- | --- | --- | --- | --- | --- |
| b12 (antibody) | > 50 | > 50 | 3.77 | > 25 | 2.66 | > 50 | 9.99 | > 50 | 6.11 | > 50 | 4.25 | 41.1 | 7.75 | 27.5 | > 50 | – | – |
| PGT-141 (4964_G22; 4993_K13) (antibody) | – | – | – | – | – | – | – | – | – | – | – | – | – | – | – | 20.3 | – |
| 5145_B14 (PGT-127) (antibody) | – | – | – | – | – | – | – | – | – | – | – | – | – | – | – | – | IC50 [17]: > 50 µg/mL; IC50, pseudovirus neutralization [18]: 0.079 µg/mL; IC50, pseudovirus neutralization [19]: 0.279 µg/mL; IC50, pseudovirus neutralization [20]: 0.063 µg/mL; Fold IC50 increase relative to wild-type [21]: 1.6 fold; Fold IC50 increase relative to wild-type [22]: 1.9 fold; IC50 (µg/mL) neutralization [23]: 7.57 µg/mL; neutralization IC50 [24]: 0.059 µg/mL; IC50 (µg/mL) neutralization [25]: > 50 µg/mL; Fold IC50 increase relative to wild-type [26]: 1.6 fold; Fold IC50 increase relative to wild-type [27]: 0.3 fold; Fold IC50 increase relative to wild-type [28]: 1.1 fold; IC50 (µg/mL) neutralization [29]: > 50 µg/mL; IC50 (µg/mL) neutralization [30]: 0.017 µg/mL; IC50, pseudovirus neutralization [31]: 0.075 µg/mL |
| 1495_C14 (PGC14) (antibody) | > 50 | > 50 | > 50 | 7.41 | > 50 | > 50 | > 50 | > 50 | > 50 | 29 | > 50 | > 50 | > 50 | 0.637 | > 50 | – | – |
| PGT-121 (antibody) | – | – | – | – | – | – | – | – | – | – | – | – | – | – | – | – | IC50 (µg/mL), pseudovirus neutralization [32]: > 50 µg/mL; Primary Neutralization Index (B cell culture well 4838 L06) [33]: 3.2; Primary Neutralization Index (B cell culture well 4873 E03) [33]: 2.2 |
| 4838_L06 (PGT-121) (antibody) | – | – | – | – | – | – | – | – | – | – | – | – | – | – | – | – | IC50, pseudovirus neutralization [18]: 0.008 µg/mL; IC50, pseudovirus neutralization [19]: 0.386 µg/mL; IC50, pseudovirus neutralization [20]: 7.09 µg/mL; IC50 (µg/mL) neutralization [23]: 0.472 µg/mL; neutralization IC50 [24]: 0.08 µg/mL; IC50 (µg/mL) neutralization [25]: 7.23 µg/mL; IC50 (µg/mL) neutralization [29]: 46.8 µg/mL; IC50 (µg/mL) neutralization [30]: > 50 µg/mL; IC50, pseudovirus neutralization [31]: 0.036 µg/mL |
| 2F5 (antibody) | 21.5 | > 50 | > 50 | 0.1 | > 50 | > 50 | 1.51 | > 50 | > 50 | 24.6 | 0.38 | 4.45 | > 50 | > 50 | 1.16 | – | – |
| 1496_C09 (PG9) (TCN-109) (antibody) | 0.58 | – | 0.67 | 0.0869 | 2.98 | 0.22 | 0.111 | – | 0.79 | 0.027 | – | – | 0.06 | – | 0.19 | 14.6 | IC50 (µg/mL), pseudovirus neutralization [34]: 0.06 µg/mL; IC50 [32]: 3.6 µg/mL |
| 4877_D15 (PGT-122) (antibody) | – | – | – | – | – | – | – | – | – | – | – | – | – | – | – | – | IC50 [17]: 0.195 µg/mL; IC50, pseudovirus neutralization [18]: 0.011 µg/mL; IC50, pseudovirus neutralization [19]: 1.8 µg/mL; IC50, pseudovirus neutralization [20]: > 50 µg/mL; IC50 (µg/mL) neutralization [23]: 2.22 µg/mL; neutralization IC50 [24]: 0.128 µg/mL; IC50 (µg/mL) neutralization [25]: 32.6 µg/mL; IC50 (µg/mL) neutralization [29]: 8.69 µg/mL; IC50 (µg/mL) neutralization [30]: > 50 µg/mL; IC50, pseudovirus neutralization [31]: 0.066 µg/mL |
| 5141_B17 (PGT-126) (antibody) | – | – | – | – | – | – | – | – | – | – | – | – | – | – | – | – | IC50 [17]: > 50 µg/mL; IC50, pseudovirus neutralization [18]: 0.041 µg/mL; IC50, pseudovirus neutralization [19]: 0.078 µg/mL; IC50, pseudovirus neutralization [20]: 0.025 µg/mL; Fold IC50 increase relative to wild-type [21]: 1.8 fold; Fold IC50 increase relative to wild-type [22]: 0.7 fold; IC50 (µg/mL) neutralization [23]: 0.196 µg/mL; neutralization IC50 [24]: 0.03 µg/mL; IC50 (µg/mL) neutralization [25]: > 50 µg/mL; Fold IC50 increase relative to wild-type [26]: 1 fold; Fold IC50 increase relative to wild-type [27]: 1.2 fold; Fold IC50 increase relative to wild-type [28]: 0.6 fold; IC50 (µg/mL) neutralization [29]: 0.786 µg/mL; IC50 (µg/mL) neutralization [30]: 0.005 µg/mL; IC50, pseudovirus neutralization [31]: 0.027 µg/mL |
| PGT-143 (4980_N08) (antibody) | – | – | – | – | – | – | – | – | – | – | – | – | – | – | – | 4.77 | – |
| PGT-122 (antibody) | – | – | – | – | – | – | – | – | – | – | – | – | – | – | – | – | IC50 (µg/mL), pseudovirus neutralization [32]: > 50 µg/mL |
| PGT-142 (4995_E20) (antibody) | – | – | – | – | – | – | – | – | – | – | – | – | – | – | – | 5.95 | – |
| 2G12 (antibody) | > 50 | > 50 | 31 | 5.3 | > 50 | > 50 | > 50 | 13.9 | 0.84 | > 50 | > 50 | > 50 | 1.5 | 2.26 | > 50 | – | – |
| PGV04 (antibody) | – | – | – | – | – | – | – | – | – | – | – | – | – | – | – | 0.027 | IC50 (µg/mL), pseudovirus neutralization [17]: 0.02 µg/mL; IC50 (µg/mL), pseudovirus neutralization [34]: 43.2 µg/mL; IC50 [32]: 4.46 µg/mL; IC50 (µg/mL), pseudovirus neutralization [35]: 17.5 µg/mL |
| 1443_C16 (PG16) (TCN-116) (antibody) | 1.12 | > 50 | 1.21 | 0.08 | 2.55 | 0.04 | 0.127 | > 50 | 1.13 | 0.01 | > 50 | > 50 | 0.01 | > 50 | 0.04 | – | – |
| 4E10 (antibody) | 7.61 | > 50 | 6.53 | 0.4 | 16.4 | 22.6 | 1.9 | 9.72 | 6.35 | 9.44 | 0.59 | 11.2 | 0.91 | 41.4 | 1.44 | – | – |
| PGT-144 (4970_K22) (antibody) | – | – | – | – | – | – | – | – | – | – | – | – | – | – | – | > 50 | – |
| VRC01 (antibody) | – | – | – | – | – | – | – | – | – | – | – | – | – | – | – | 0.06 | IC50, pseudovirus neutralization [17]: 0.056 µg/mL; IC50 [36]: 0.117 µg/mL; IC50 [37]: 0.155 µg/mL; neutralization IC50 [38]: 0.1 µg/mL; neutralization IC50 [33]: 0.164 µg/mL; IC50, pseudovirus neutralization [35]: > 50 µg/mL; neutralization IC50 [39]: 0.06 µg/mL |
